Assays:
I-Ab = biological target: T1, I-Ab (Mus musculus, UniProt P14434+P14483); details: purified I-Ab; compared with binding to I-As or with wild-type peptide
T1 sequence (P14434 24-256): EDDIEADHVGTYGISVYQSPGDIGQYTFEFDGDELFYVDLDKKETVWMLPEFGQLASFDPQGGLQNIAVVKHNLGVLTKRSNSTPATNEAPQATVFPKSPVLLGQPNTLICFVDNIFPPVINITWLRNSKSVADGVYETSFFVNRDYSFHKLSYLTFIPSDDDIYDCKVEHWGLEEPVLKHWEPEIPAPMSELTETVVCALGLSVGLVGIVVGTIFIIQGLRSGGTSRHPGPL
T1 sequence (P14483 28-265): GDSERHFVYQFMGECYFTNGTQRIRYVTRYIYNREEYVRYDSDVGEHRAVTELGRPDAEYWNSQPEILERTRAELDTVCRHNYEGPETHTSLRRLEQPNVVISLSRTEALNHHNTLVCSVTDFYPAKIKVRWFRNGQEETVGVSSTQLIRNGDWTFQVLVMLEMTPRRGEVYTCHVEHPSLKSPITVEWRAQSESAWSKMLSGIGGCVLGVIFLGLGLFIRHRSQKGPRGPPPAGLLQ

I-As = biological target: T2, I-As (Mus musculus, UniProt P06345+P14437); format: binding; details: purified I-As; compared with ROIV or with wild-type peptide
T2 sequence (P14437 1-233): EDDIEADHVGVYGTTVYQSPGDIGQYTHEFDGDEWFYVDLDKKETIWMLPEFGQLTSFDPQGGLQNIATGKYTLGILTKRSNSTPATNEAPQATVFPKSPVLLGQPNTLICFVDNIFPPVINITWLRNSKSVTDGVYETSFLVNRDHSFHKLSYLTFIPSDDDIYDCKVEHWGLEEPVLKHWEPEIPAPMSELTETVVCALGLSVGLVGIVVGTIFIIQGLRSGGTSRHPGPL
T2 sequence (P06345 28-263): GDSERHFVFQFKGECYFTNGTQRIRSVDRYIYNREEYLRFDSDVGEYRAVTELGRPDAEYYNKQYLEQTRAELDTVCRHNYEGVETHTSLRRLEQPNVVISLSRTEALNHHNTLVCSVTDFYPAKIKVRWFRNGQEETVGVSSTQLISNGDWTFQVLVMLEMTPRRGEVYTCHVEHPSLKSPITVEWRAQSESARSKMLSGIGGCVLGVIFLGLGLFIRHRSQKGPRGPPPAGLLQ

For “myelin basic protein 81-100: I-As-restricted epitope myelin basic protein 81-100 (HPADPGNRPHLIRLFSRDAP; UniProt P04370 81-100, looked up, fragment)”, the “Binding to I-Ab, in words” value (I-Ab) was “far less affinity” and the “Binding to I-As, in words” value (I-As) was “as well as the ROW”.

— PMC2191965 (The Journal of Experimental Medicine, 1995)
